B1: MMP-2 (matrix metalloproteinase-2), p-aminophenylmercuric acetate-activated (protein)
chain: YNFFPRKPKWDKNQITYRIIGYTPDLDPETVDDAFARAFQVWSDVTPLRFSRIHDGEADIMINFGRWEHGDGYPFDGKDGLLAHAFAPGTGVGGDSHFDDDELWTLGEGQVVRVKYGNADGEYCKFPFLFNGKEYNSCTDTGRSDGFLWCSTTYNFEKDGKYGFCPHEALFTMGGNAEGQPCKFPFRFQGTSYDSCTTEGRTDGYRWCGTTEDYDRDKKYGFCPETAMSTVGGNSEGAPCVFPFTFLGNKYESCTSAGRSDGKMWCATTANYDDDRKWGFCPDQGYSLFLVAAHEFGHAMGLEHSQDPGALMAPIYTYTKNFRLSQDDIKGIQELYGASPDIDLGTGPTPTLGPVTPEICKQDIVFDGIAQIRGEIFFFKDRFIWRTVTPRDKPMGPLLVATFWPELPEKIDAVYEAPQEEKAVFFAGNEYWIYSASTLERGYPKPLTSLGLPPDVQRVDAAFNWSKNKKTYIFAGDKFWRYNEVKKKMDPGFPKLIADAWNAIPDNLDAVVDLQGGGHSYFFKGAYYLKLENQSLKSVKFGSIKSDWLGC
B2: soluble EPCR (endothelial protein C receptor) (receptor, UniProt Q9UNN8 18-210, looked up)
chain: SQDASDGLQRLHMLQISYFRDPYHVWYQGNASLGGHLTHVLEGPDTNTTIIQLQPLQEPESWARTQSGLQSYLLQFHGLVRLVHQERTLAFPLTIRCFLGCELPPEGSRAHVFFEVAVNGSSFVSFRPERALWQADTQVTSGVVTFTLQQLNAYNRTRYELREFLEDTCVQYVQKHISAENTKGSQTSRSYTS
notes: also called sEPCR
B3: TFMG (TRAP-ferritin monomer fragment-linker-PC-Gla fusion polypeptide) (other)
chain: MGGTTFLLRNASGHMSSQIRQNYSTDVEAAVNSLVNLYLQASYTYLSLGFYFDRDDVALEGVSHFFRELAEEKREGYERLLKMQNQRGGRIFLQDIKKPAEDEWGKTPDAMKAAMALEKKLNQALLDLHALGSARTDPHLCDFLETHFLDEEVKLIKKMGDHLTNLHRLGGGSEFVDGGGSGTSGPLGLAGANSFLEELRHSSLERECIEEICDFEEAKEIFQNVDDTLAFWSKHVLEHHHHHH
notes: also called TMFG; TFME
B4: TFG (TRAP-ferritin monomer fragment-PC-Gla fusion polypeptide) (other)
chain: MGGTTFLLRNASGHMSSQIRQNYSTDVEAAVNSLVNLYLQASYTYLSLGFYFDRDDVALEGVSHFFRELAEEKREGYERLLKMQNQRGGRIFLQDIKKPAEDEWGKTPDAMKAAMALEKKLNQALLDLHALGSARTDPHLCDFLETHFLDEEVKLIKKMGDHLTNLHRLGGGSEFVDGGGSGTSANSFLEELRHSSLERECIEEICDFEEAKEIFQNVDDTLAFWSKHVLEHHHHHH
notes: also called TRAP-ferritin-PC-Gla; TFG nanocage
B5: PC-Gla peptide (Protein C Gla domain polypeptide) (peptide)
peptide: ANSFLEELRHSSLERECIEEICDFEEAKEIFQNVDDTLAFWSKHV
modifications: ends and bridges not checked; also: labelled with a fluorescent dye for cell and in vivo assays
notes: No gamma-carboxylation of Glu residues is stated; It was labelled with a fluorescent dye for the cell and in vivo assays; also called PC-Gla domain; PC-Gla peptides

The target in data set [1] is T1, TFMG (TRAP-ferritin monomer fragment-linker-PC-Gla fusion polypeptide).
T1 chain: B3 chain

Another data set concerns the target T2, wild type Protein C (PC) (UniProt P04070 43-461).
T2 construct: also called wild-type PC
As to the kind of experiment: solid-phase ELISA, sEPCR coated on the plate, detection with anti-protein C polyclonal antibody; Kd(app). Here is the method: (§1) To evaluate the interaction of the wild-type PC, PC-Gla peptides, TFG, and TFMG with EPCR, 96-well flat microtiter plates were coated with soluble EPCR in 20 mM carbonate-bicarbonate buffer (pH 9.6) containing 0.02% sodium azaide, overnight at 4° C. After the plates were washed three times in TBS buffer (0.1 M NaCl, 0.02 M Tris-HCl, pH 7.4) containing 0.05% Tween 20, the plates were incubated with wild-type PC, PC-Gla peptides, TFG, and TFMG ([…]) diluted in the buffer for 1 h. After the plates were rinsed again, they were incubated with a goat anti-protein C polyclonal antibody (1:1000) for 1 h. Then, the plates were washed and incubated with rabbit anti-goat IgG (KPL, MD, 1:1000) for 1 h. After washing, the plates were incubated with 2,2′-azino-di(3-ethylbenzthiazoline-6-sulfonate) (ABTS; KPL, Gaithersburg, Md.). Colorimetric analysis was performed by measuring absorbance values at 405 nm.
(§2) First, a solid-phase ELISA was used to measure the binding affinity of TFG or TFMG toward the PC-Gla receptor, EPCR. In this assay, the efficiency of their binding to soluble EPCR (sEPCR) was compared. […] TFG and TFMG, respectively.
On the technique in general: An ELISA detects its analyte on a solid surface through an enzyme-linked reagent.

The target of data set [2] is B2. Described as above. The procedure:
as §1, §2

The target of another data set is T3, EPCR in mouse vena cava (mouse, UniProt Q64695 18-242).
T3 construct: whole, on cells; Endogenous receptor in tissue sections of C57BL/6 mice; also called EPCR (mouse, in vivo)
T3 sequence (looked up): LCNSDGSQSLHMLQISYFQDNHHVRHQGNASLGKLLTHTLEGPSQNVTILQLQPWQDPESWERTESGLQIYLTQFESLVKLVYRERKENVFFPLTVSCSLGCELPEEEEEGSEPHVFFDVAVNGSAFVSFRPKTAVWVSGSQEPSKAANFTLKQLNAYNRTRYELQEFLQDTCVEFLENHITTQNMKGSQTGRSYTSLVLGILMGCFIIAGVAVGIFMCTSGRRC
As to the kind of experiment: immunohistochemistry of mouse vena cava after i.v. injection of the fluorescence-labelled molecule; comparison with TFG and TFMG. The procedure: Twenty-four hours prior to CLP surgery, fluorescence labeled-PC-Gla, TFG, and TFMG (200 nM/mouse) was intravenously injected into the mice, respectively. After 24 h, mouse vena cava was enucleated and fixed in visikol for 24 h. Subsequently, vena cava was embedded in optimum cutting temperature (OCT) compound (Tissue Tek) at −80° C. Consecutive sections were incubated with anti-EPCR antibody (Santa Cruz, Calif.), anti-rabbit Alexa 488 (green), anti-CD31 antibody, and anti-rabbit Alexa 350 (blue), and observed by confocal microscopy at 63× magnification (TCS-SP5, Leica microsystem, Germany).

No end group written: not given here.

For B1, the “cleavage of the linker and release of PC-Gla (HPLC, MALDI-ToF)” value in data set [1] is given as “TFMG was cleaved by MMP-2 to release PC-Gla in agreement with the calculated mass (5,518.6 Da by MALDI-ToF)”.
The molecule B2 returned a Kd in the data set with wild type Protein C (PC) of around 31.3 nM.
B3: the Kd in data set [2] was 30.7 nM.
As to B4, the Kd in data set [2] stood at 31.5 nM.
Regarding B5, the binding result with EPCR in mouse vena cava is reported as “binds”.
